Patent US20200216522A1 (DENALI THERAPEUTICS, published 2020)
Where a chain is given by its changes, count along the chain named.

Tests used:
Assay in all cases: peptide array
Peptide_074 = target: T1, Peptide_074 (human)
T1 peptide: GGNKKIETHKLTFRE
Outline: (§1)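 Overlapping 15-mer peptides (5-aa offset) spanning human 2N4R Tau spotted in triplicate on slides; antibodies bound 2 h at room temperature in 3% BSA-TBST (chimeric IgG 5 μg/mL; mouse IgG 30 μg/mL). Detection 1 h with fluorescent anti-human (568 nm) or anti-mouse (647 nm) secondary; fluorescence imaging aligned to array map.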

Peptide_077 = target: T2, Peptide_077 (human)
T2 peptide: NAKAKTDHGAEIVYK
Outline: as §1

Peptide_082 = target: T3, Peptide_082 (human)
T3 peptide: RHLSNVSSTGSIDMV
Outline: as §1

Peptide_042 = target: T4, Peptide_042 (human)
T4 peptide: PGSRSRTPSLPTPPT
Outline: as §1

Peptide_031 = target: T5, Peptide_031 (human)
T5 peptide: IATPRGAAPPGQKGQ
Outline: as §1

Peptide_034 = target: T6, Peptide_034 (human)
T6 peptide: ANATRIPAKTPPAPK
Outline: as §1

Peptide_028 = target: T7, Peptide_028 (human)
T7 peptide: GSDDKKAKGADGKTK
Outline: as §1

Peptide_086 = target: T8, Peptide_086 (human)
T8 peptide: ATLADEVSASLAKQG
Outline: as §1

Peptide_038 = target: T9, Peptide_038 (human)
T9 peptide: GEPPKSGDRSGYSSP
Outline: as §1

Peptide_033 = target: T10, Peptide_033 (human)
T10 peptide: GQKGQANATRIPAKT
Outline: as §1

Peptide_035 = target: T11, Peptide_035 (human)
T11 peptide: IPAKTPPAPKTPPSS
Outline: as §1

Peptide_072 = target: T12, Peptide_072 (human)
T12 peptide: SLDNITHVPGGGNKK
Outline: as §1

Peptide_025 = target: T13, Peptide_025 (human)
T13 peptide: HVTQARMVSKSKDGT
Outline: as §1

Peptide_003 = target: T14, Peptide_003 (human)
T14 peptide: MEDHAGTYGLGDRKD
Outline: as §1

Peptide_081 = target: T15, Peptide_081 (human)
T15 peptide: GDTSPRHLSNVSSTG
Outline: as §1

Peptide_048 = target: T16, Peptide_048 (human)
T16 peptide: PSSAKSRLQTAPVPM
Outline: as §1

Peptide_016 = target: T17, Peptide_016 (human)
T17 peptide: TAPLVDEGAPGKQAA
Outline: as §1

Peptide_006 = target: T18, Peptide_006 (human)
T18 peptide: QGGYTMHQDQEGDTD
Outline: as §1

Peptide_066 = target: T19, Peptide_066 (human)
T19 peptide: GNIHHKPGGGQVEVK
Outline: as §1

Peptide_076 = target: T20, Peptide_076 (human)
T20 peptide: LTFRENAKAKTDHGA
Outline: as §1

Peptide_069 = target: T21, Peptide_069 (human)
T21 peptide: SEKLDFKDRVQSKIG
Outline: as §1

Peptide_071 = target: T22, Peptide_071 (human)
T22 peptide: QSKIGSLDNITHVPG
Outline: as §1

Peptide_064 = target: T23, Peptide_064 (human)
T23 peptide: SKVTSKCGSLGNIHH
Outline: as §1

Peptide_010 = target: T24, Peptide_010 (human)
T24 peptide: SPLQTPTEDGSEEPG
Outline: as §1

Peptide_075 = target: T25, Peptide_075 (human)
T25 peptide: IETHKLTFRENAKAK
Outline: as §1

Peptide_037 = target: T26, Peptide_037 (human)
T26 peptide: TPPSSGEPPKSGDRS
Outline: as §1

Peptide_012 = target: T27, Peptide_012 (human)
T27 peptide: SEEPGSETSDAKSTP
Outline: as §1

Peptide_061 = target: T28, Peptide_061 (human)
T28 peptide: PGGGSVQIVYKPVDL
Outline: as §1

Peptide_030 = target: T29, Peptide_030 (human)
T29 peptide: DGKTKIATPRGAAPP
Outline: as §1

Peptide_059 = target: T30, Peptide_059 (human)
T30 peptide: CGSKDNIKHVPGGGS
Outline: as §1

Peptide_060 = target: T31, Peptide_060 (human)
T31 peptide: NIKHVPGGGSVQIVY
Outline: as §1

Peptide_046 = target: T32, Peptide_046 (human)
T32 peptide: VAVVRTPPKSPSSAK
Outline: as §1

Peptide_026 = target: T33, Peptide_026 (human)
T33 peptide: RMVSKSKDGTGSDDK
Outline: as §1

Peptide_087 = target: T34, Peptide_087 (human)
T34 peptide: TLADEVSASLAKQGL
Outline: as §1

Peptide_029 = target: T35, Peptide_029 (human)
T35 peptide: KAKGADGKTKIATPR
Outline: as §1

Measured: binding result

B1: chimeric IgG clone 1A5 (antibody, V domains shown)
VH: EVQLQQSGAELVRPGASVKLSCTASGFNIKDSLIHWVKQRPEQGLEWIGWIDPEDGETKYAPKFQDKATKTADTSSNTAYLQLSSLTSEDTAIYYCASGEWDYWGQGTSVTVSS
VL: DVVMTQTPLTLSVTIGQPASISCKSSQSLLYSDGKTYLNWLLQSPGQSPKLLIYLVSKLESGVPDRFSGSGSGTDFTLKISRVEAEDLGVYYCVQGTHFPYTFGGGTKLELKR
notes: mouse-human chimeric IgG from HEK293
no binding (tested: 5 ug/mL): Peptide_074 | Peptide_077 | Peptide_082 | Peptide_042 | Peptide_031 | Peptide_034 | Peptide_028 | Peptide_086 | Peptide_038 | Peptide_033 | Peptide_035 | Peptide_072 | Peptide_025 | Peptide_003 | Peptide_081 | Peptide_048 | Peptide_016 | Peptide_006 | Peptide_066 | Peptide_076 | Peptide_069 | Peptide_071 | Peptide_064 | Peptide_010 | Peptide_075 | Peptide_037 | Peptide_012 | Peptide_061 | Peptide_030 | Peptide_059 | Peptide_060 | Peptide_046 | Peptide_026 | Peptide_087 | Peptide_029

B2: chimeric IgG clone 1A1 (antibody, V domains shown)
VH: EVQLQQSGAELVRPGASVRLSCTASGFNIKDSLMHWLKQRPEQGLEWIGWIDPEDGETKYAPKFQDKATITADTSSNTAYLQLSSLTSEDTAIYYCTRRDWEGPWGQGTLVTVSA
VL: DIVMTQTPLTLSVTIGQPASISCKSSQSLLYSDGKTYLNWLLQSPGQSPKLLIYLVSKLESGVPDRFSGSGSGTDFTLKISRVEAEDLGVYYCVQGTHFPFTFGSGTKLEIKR
notes: mouse-human chimeric IgG from HEK293; also called anti-Tau 1A1; anti-Tau^1A1
no binding (tested: 5 ug/mL): Peptide_074 | Peptide_077 | Peptide_082 | Peptide_042 | Peptide_031 | Peptide_034 | Peptide_028 | Peptide_086 | Peptide_038 | Peptide_033 | Peptide_035 | Peptide_072 | Peptide_025 | Peptide_003 | Peptide_081 | Peptide_048 | Peptide_016 | Peptide_006 | Peptide_066 | Peptide_076 | Peptide_069 | Peptide_071 | Peptide_064 | Peptide_010 | Peptide_075 | Peptide_037 | Peptide_012 | Peptide_061 | Peptide_030 | Peptide_059 | Peptide_060 | Peptide_046 | Peptide_026 | Peptide_087 | Peptide_029

B3: chimeric IgG clone 1G7 (antibody, V domains shown)
VH: B2 VH with L11V, R19K, A24T, E89G, T97A
VL: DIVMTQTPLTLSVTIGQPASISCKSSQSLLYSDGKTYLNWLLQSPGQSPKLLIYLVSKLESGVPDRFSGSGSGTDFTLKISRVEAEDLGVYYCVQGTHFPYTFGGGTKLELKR
notes: as for B1
no binding (tested: 5 ug/mL): Peptide_074 | Peptide_077 | Peptide_082 | Peptide_042 | Peptide_031 | Peptide_034 | Peptide_028 | Peptide_086 | Peptide_038 | Peptide_033 | Peptide_035 | Peptide_072 | Peptide_025 | Peptide_003 | Peptide_081 | Peptide_048 | Peptide_016 | Peptide_006 | Peptide_066 | Peptide_076 | Peptide_069 | Peptide_071 | Peptide_064 | Peptide_010 | Peptide_075 | Peptide_037 | Peptide_012 | Peptide_061 | Peptide_030 | Peptide_059 | Peptide_060 | Peptide_046 | Peptide_026 | Peptide_087 | Peptide_029
